Assay results taken from US20170304442A1 (SORRENTO THERAPEUTICS, published 2017).

T1: recombinant mouse WISP1/His (mouse, UniProt O54775 23-367)
T1 construct: also called murine WISP1; mWISP1; not shown: His tag
T1 sequence (looked up): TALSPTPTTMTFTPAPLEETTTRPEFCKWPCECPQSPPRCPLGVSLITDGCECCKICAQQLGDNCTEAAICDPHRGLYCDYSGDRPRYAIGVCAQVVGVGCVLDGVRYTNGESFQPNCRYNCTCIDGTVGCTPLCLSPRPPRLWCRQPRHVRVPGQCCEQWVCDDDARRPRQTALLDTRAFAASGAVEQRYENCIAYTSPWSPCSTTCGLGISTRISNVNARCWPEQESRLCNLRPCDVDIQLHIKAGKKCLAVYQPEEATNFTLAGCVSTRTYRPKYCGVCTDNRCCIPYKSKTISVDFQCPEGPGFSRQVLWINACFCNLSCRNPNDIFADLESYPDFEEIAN

T2: recombinant human WISP1/His (human, UniProt O95388 23-367)
T2 construct: also called hWISP1; recombinant human WISP1 protein; not shown: His tag
T2 sequence (looked up): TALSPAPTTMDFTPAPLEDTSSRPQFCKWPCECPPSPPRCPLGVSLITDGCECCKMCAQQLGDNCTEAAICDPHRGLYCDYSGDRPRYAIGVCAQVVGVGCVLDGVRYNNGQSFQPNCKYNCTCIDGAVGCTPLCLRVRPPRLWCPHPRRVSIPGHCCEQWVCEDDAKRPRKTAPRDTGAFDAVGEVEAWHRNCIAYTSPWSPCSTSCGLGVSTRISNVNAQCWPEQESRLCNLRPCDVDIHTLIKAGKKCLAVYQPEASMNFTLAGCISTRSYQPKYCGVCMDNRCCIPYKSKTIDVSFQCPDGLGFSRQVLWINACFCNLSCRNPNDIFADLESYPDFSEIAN

B1: WIr2F6 (antibody, V domains shown)
VH: QMQLVQSGAEVKRPGASVKVSCKASGYSFTNFDINWVRQATGQGLEWMGWMDPNSGNSGSAPAFQGRVTMTRDTSIGTAYMELSGLTSEDTAVYYCARDDFYDSSGFDAWGQGTLVTVSS
VL: QSVLTQPPSASGTPGQTVTVSCSGRSSNVGSNTVDWYQHLPGTAPKLLIYSSNRRPSGVPDRFSGSKSGTSASLAISGLQSEDEADYYCAAWDDSLNVYVFGTGTKLTVL
notes: Tested as IgG (captured by anti-human Fc); also called Wlr2F6
B2: WIr2D6 (antibody, V domains shown)
VH: EVQLVQSGAEVKRSGASVKVSCKLSGDTLTDLSIHWVRQAPGKGLEWMGGFDFEDGEIVYGDKFKGRVTVTEDPSTDTAYMDLKRLTFEDTAIYYCATIKDIPGRYYFDFWGQGTLVTVSS
VL: VIWMTQSPSSVSASVGDTVTITCRASQGIRSWLAWYQQKPGKAPKLLIYGASSLHSGVPSRFSGSGSGTYFTLTISSLQPEDFATYYCQQADSFPPWTFGQGTKVEIK
notes: Tested as IgG (captured by anti-human Fc); also called Wlr2D6
B3: WIr2H4 (antibody, V domains shown)
VH: EVQLVESGGDLVQPGGSLRLSCAASGFTLNSRDMHWVRQSTRTGLEWVAAISIAGDTYYPLSVRGRFTISRDTAKSSLYLQMNSLTDGDTAVYYCVRGRHFDGYKSVFFDSWGQGTLVTVSS
VL: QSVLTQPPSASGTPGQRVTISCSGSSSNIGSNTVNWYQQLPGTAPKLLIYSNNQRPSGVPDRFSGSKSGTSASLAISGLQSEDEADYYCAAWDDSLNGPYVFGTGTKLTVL
notes: Tested as IgG (captured by anti-human Fc); also called Wlr2H4
B4: WIr2H3 (antibody, V domains shown)
VH: EVQLVQSGGGMVQPGGSLRLSCAASGFTFSDYYMDWVRQAPGQGLEWVGRIRHKAQGYTTEYAASVKGRFSISRDDSRSSLSLQMNSLKTEDTAVYYCAMVGGSRDWGQGTLVTVSS
VL: QAGLTQPPSVSGAPGQRVTISCTGGSSNIGPGYAVHWYQQHPGRAPKLLIYTNNNRPSGVPDRFSGSRSGTSASLAITGLQAEDDAYYYCQSYDSSLSGSVFGGGTKLTVL
notes: Tested as IgG (captured by anti-human Fc); also called Wlr2H3
B5: WIr2C11 (antibody, V domains shown)
VH: QVQLVESGGALVQPGGSLRLSCAASGFTFSDHWLSWVRQAPGKGLEWVSSISSSSRYIHYADSVKGRFTISRDNAKNSLYLQMNSLSAEDTAVYYCAREDTSMATNGFDVWGQGTMVTVSS
VL: AIQLTQSPSSLSASVGDRVTITCRASQGIRNHLGWYQQKPGKAPKRLIYAASSLQSGVPSRFSGSGSGTEFTLTISGLQPEDFATYYCLQHNSYPFTFGQGTRLEIK
notes: Tested as IgG (captured by anti-human Fc); also called Wlr2C11
B6: WIr2H2 (antibody, V domains shown)
VH: EVQLVQSGADVKKPGASVKVSCQASGYTLTSYDIHWMRQAPGQGLEWMGWINPNSGNTGYAEKFQGRVAMTSHTSTSTVYMELSRLTSEDTAVYYCARGAMGGFDPWGQGTLVTVSS
VL: DIQMTQSPSSVSASVGDRVTITCRASQDISRWLAWYQQKPGKAPKLLIYAASTLQSGVPSRFSGSGSGTDFTLTISSLQPEDFATYYCQQANTFPITFGQGTRLEIK
notes: Fully human IgG; also called Wlr2H2

The binders below were run against T1, recombinant mouse WISP1/His (assay: ELISA screening).

Binder | binding result
B1 | binds
B2 | binds
B3 | binds
B4 | binds
B5 | binds
B6 | binds

What follows are binders tested against T2, recombinant human WISP1/His (assay: ELISA screening).

Binder | binding result
B6 | binds

What follows are binders tested against T2, recombinant human WISP1/His (assay: SPR, IgG captured on anti-human Fc CM5 chip, human WISP1/His as analyte, 1:1 Langmuir fit).
Protocol: This example illustrates binding affinities of various anti-WISP-1 antibodies disclosed herein. Briefly, Anti-human Fc antibody (GE, BR-1008-39) was immobilized on CM5 sensor chip to approximately 1000 RU using standard NHS/EDC coupling methodology. Antibodies (about 10 μg/ml) were captured for 60 s at a flow rate 10 μl/min. Recombinant human WISP1/His was serially diluted in running buffer (HBS-EP). All measurements were conducted with a flow rate of 30 μL/min. Surfaces were regenerated with 3M MgCl2 for 60 s. A 1:1 (Langmuir) binding model was used to fit the data.

Binder | Kd [nM] | koff [s⁻¹] | kon [M⁻¹ s⁻¹]
B1 | 10.1 | 0.00559 | 554000
B2 | 53.9 | 0.0489 | 907000
B3 | 0.631 | 0.00025 | 396000
B4 | 95.9 | 0.00897 | 93500
B5 | 81.7 | 0.0219 | 267000
